Among the data in publication PMC4565748 (2015) are Kd values, retold here.

The test has as its target C3b (Homo sapiens, UniProt P01024). The test can be described thus: AlphaAssay.

C3b, sequence (P01024 23-667, chain 1 of 2): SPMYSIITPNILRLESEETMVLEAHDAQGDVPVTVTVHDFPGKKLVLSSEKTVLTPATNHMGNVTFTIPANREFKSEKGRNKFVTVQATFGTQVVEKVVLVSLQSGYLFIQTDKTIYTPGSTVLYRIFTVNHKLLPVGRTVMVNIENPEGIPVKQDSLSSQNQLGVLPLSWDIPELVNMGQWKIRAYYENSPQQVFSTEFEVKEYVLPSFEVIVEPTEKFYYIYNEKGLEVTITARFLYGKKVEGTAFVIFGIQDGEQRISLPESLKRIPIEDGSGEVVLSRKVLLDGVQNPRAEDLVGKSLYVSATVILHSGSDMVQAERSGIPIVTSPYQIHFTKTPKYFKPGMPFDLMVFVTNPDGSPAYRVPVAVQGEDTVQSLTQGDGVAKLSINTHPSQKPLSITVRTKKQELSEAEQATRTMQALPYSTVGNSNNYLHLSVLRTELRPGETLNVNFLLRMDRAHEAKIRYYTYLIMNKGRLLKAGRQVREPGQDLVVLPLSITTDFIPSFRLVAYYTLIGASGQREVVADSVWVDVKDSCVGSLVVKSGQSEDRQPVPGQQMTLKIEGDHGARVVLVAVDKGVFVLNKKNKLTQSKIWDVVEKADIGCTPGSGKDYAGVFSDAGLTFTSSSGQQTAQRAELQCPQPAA
C3b, sequence (P01024 749-1663, chain 2 of 2): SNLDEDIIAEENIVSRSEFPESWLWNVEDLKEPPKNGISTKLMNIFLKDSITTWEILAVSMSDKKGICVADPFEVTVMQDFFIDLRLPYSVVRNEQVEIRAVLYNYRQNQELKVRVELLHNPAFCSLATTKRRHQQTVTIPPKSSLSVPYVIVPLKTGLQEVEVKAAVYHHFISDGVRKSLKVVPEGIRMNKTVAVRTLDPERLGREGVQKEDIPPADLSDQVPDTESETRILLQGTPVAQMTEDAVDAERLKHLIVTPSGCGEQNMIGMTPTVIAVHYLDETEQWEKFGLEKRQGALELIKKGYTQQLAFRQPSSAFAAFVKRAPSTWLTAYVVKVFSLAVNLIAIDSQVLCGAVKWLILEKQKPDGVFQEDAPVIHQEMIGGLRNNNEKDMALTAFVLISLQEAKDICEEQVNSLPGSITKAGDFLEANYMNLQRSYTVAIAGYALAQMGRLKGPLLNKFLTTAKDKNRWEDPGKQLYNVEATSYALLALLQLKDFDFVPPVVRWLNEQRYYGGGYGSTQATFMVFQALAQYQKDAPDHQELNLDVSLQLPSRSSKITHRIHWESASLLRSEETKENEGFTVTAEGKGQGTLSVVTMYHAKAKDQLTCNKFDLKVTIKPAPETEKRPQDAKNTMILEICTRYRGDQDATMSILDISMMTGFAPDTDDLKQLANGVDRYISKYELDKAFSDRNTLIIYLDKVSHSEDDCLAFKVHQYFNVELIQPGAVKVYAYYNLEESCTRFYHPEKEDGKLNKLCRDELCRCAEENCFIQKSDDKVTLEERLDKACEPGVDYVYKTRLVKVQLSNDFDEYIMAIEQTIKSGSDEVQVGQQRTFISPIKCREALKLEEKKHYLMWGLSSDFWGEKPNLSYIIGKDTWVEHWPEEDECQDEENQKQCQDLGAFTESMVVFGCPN

B1: SCIN-A (protein)
chain: STSLPTSNEYQNEKLANELKSLLDELNVNELATGSLNTYYKRTIKISGQKAMYALKSKDFKKMSEAKYQLQKIYNEIDEALKSKY
Regarding B1, the equilibrium dissociation constant (Kd) is 74 nM.

As a reminder, the Kd is a measure of binding affinity in units of concentration. The low end stands for higher affinity, the high end for lower affinity.
